According to patent publication US20140255303A1 (UNIVERSITE JOSEPH FOURIER GRENOBLE 1, published 2014):
Where a chain is given by its changes, count along the chain named. Each block holds one binder with its values, some of them ahead of it.

Assays:
human recombinant VCAM-1 = target: T1, human recombinant VCAM-1 (human, UniProt P19320 25-698); experiment: SPR, Biacore 3000, recombinant hVCAM-1 immobilised on CM5 chip, 1:1 model
T1 construct: Bought recombinant protein (RnD Systems), immobilised on a CM5 chip for SPR; also called hVCAM-1; human VCAM-1
T1 sequence (looked up): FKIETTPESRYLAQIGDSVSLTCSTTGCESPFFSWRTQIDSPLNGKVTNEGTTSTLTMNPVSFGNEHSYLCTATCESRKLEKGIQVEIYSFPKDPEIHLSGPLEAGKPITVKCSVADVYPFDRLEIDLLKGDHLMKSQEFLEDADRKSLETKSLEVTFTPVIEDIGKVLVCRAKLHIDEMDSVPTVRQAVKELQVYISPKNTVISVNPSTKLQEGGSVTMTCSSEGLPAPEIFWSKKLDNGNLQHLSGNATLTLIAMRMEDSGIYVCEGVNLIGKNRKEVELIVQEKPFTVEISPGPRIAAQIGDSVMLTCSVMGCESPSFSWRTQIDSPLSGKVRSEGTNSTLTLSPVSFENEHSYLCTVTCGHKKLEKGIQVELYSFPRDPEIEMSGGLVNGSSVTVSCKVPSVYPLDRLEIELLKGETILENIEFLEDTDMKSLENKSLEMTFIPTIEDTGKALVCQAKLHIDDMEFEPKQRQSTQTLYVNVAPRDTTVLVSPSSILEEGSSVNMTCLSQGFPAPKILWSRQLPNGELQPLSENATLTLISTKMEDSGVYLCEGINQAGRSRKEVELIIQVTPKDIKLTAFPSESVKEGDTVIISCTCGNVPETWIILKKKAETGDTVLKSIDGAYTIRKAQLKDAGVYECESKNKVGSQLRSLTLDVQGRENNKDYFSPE
Description: (§1) The affinity of human or murine recombinant VCAM-1 nanobodies was determined by SPR analysis on a Biacore 3000 apparatus. Recombinant mouse ICAM-1 (RnD Systems) was used as a negative control. The recombinant proteins were immobilized on a sensor chip CM5 (Biacore, Uppsala, Sweden) according to the instructions of manufacturer. Serial half-dilutions of the nanodbodies from 50 to 1 nM in PBS with 0.005% Tween-20® were tested. The affinity constants were determined by using adjustment of the standard association model 1:1 (BIAevaluation software package).

[1] = target: T2, rabbit VCAM-1 on transfected CHO cells (rabbit, UniProt A0A5F9DFM7 25-739); experiment: flow cytometry (PE-A) on CHO cells transiently transfected with rabbit VCAM-1; nanobody, then anti-His-tag mAb and anti-mouse IgG1 [Continuation), panel 8B]
T2 construct: whole, on cells
T2 sequence: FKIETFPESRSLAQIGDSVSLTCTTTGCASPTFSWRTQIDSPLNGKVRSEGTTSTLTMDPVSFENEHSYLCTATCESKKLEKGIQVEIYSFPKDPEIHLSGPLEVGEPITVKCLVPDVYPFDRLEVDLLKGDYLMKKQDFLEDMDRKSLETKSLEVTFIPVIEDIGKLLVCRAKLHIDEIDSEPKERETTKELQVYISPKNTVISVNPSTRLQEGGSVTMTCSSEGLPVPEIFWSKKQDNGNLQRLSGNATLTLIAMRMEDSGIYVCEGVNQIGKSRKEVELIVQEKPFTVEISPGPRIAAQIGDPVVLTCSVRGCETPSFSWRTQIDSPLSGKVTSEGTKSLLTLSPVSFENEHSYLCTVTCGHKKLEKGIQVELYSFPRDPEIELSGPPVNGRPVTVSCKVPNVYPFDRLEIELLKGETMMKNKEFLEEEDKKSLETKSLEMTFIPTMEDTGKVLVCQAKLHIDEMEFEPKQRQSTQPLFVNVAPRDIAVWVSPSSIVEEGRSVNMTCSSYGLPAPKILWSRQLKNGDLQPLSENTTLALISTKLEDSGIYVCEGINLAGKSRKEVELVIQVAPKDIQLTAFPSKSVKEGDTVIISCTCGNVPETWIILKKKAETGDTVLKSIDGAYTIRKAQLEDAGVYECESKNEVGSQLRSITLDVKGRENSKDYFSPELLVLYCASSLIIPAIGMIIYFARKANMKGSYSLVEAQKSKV
Description: (§2) 10⁵ CHO cells either transiently transfected or not with a plasmid coding for rabbit VCAM-1 were sequentially incubated with 1 μg of nanobodies, 1 μg of anti-His-tag monoclonal antibody (Serotec) and 200 ng of anti-mouse rat IgG₁ (BD Biosciences). The bond was measured on a FACS Canto II analyzer (BD Biosciences, Franklin Lakes, USA) and the data analysed with the FlowJo software package (TreeStar, Ashland, USA). A negative control was made by omitting the nanobody.

[2] = target: T3, murine recombinant VCAM-1 (murine, UniProt P29533 25-698); experiment: SPR, Biacore 3000, recombinant mVCAM-1 immobilised on CM5 chip, 1:1 model
T3 construct: Bought recombinant protein (RnD Systems), immobilised on a CM5 chip for SPR; also called mVCAM-1; murine VCAM-1
T3 sequence (looked up): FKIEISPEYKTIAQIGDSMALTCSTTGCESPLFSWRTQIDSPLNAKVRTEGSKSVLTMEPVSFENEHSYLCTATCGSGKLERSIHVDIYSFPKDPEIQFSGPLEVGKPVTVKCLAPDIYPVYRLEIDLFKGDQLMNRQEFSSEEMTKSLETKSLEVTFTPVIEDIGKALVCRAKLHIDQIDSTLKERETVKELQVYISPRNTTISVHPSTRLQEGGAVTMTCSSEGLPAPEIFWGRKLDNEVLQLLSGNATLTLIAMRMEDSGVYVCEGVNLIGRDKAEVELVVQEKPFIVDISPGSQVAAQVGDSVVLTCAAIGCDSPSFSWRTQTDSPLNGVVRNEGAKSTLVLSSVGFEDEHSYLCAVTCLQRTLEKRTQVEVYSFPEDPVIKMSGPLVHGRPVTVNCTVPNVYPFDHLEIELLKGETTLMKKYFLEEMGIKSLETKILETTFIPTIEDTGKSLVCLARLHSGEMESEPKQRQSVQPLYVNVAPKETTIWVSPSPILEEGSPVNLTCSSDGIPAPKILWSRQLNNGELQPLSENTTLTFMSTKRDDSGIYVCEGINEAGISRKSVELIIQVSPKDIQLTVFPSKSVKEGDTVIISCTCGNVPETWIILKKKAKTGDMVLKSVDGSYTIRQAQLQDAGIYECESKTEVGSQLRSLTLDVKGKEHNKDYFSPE
Description: as §1

[3] = target: T2, rabbit VCAM-1 on transfected CHO cells; experiment: flow cytometry (PE-A) on CHO cells transiently transfected with rabbit VCAM-1; nanobody, then anti-His-tag mAb and anti-mouse IgG1 [Continuation), panel 3B]
Description: as §2

Kd (human recombinant VCAM-1): 1.4 nM
Kd [2]: 13.2 nM
B1: cAbVCAM1-8 (VHH)
VHH: QVQLQESGGGLVQPGGSLRLSCAASGFTFSNYYMTWVRRAPGKGLEWVSRINSDGSTLYLPSVKGRFTISRDNAKNTLYLQMNSLKSEDTGWYYCVEGKSSVRGQGTQVTVSS
notes: Dromedary nanobody produced with a hexahistidine tag in E. coli; also called anti-VCAM-1 nanobody; not shown: hexahistidine tag
binding result [1]: no binding (tested: 1 µg per 10^5 cells (single amount))

Kd (human recombinant VCAM-1): 6.5 nM
Kd [2]: 2 nM
B2: cAbVCAM1-5 (VHH)
VHH: QVQLQESGGGSVQTGGSLRLSCAASGYTNSIMYMAWFRQAPGKKREGVAAIRFPDDSAYYAGSVKGRFTISHDNAKNTVYLQMNNLNPEDTAMYYCAARSSPYSFAWNDPSNYNYWGQGTQVTVSS
notes: as for B1

Kd (human recombinant VCAM-1): 9.1 nM
Kd [2]: 2.4 nM
B3: cAbVCAM1-3 (VHH)
VHH: QVQLQESGGGSVQAGGSLRLSCTASGFTYSSYYMSWVRQAPGKGLEWVSGINVDGSNTYYADSVKGRFTISRDNAKNTLYLQMNSLKSEDTALYYCATGSGRDSYDCYSGSWCPKGQGTQVTVSS
notes: as for B1
binding result [3]: no binding (tested: 1 µg per 10^5 cells (single amount))

Kd (human recombinant VCAM-1): 5.3 nM
Kd [2]: 0.9 nM
B4: cAbVCAM1-9 (VHH)
VHH: B3 VHH with S11L, A14P, T23A, Y29F
notes: as for B1
